# In PMC10200060 (2023):
# B1: lactoferrin-glycyrrhizin conjugate Lf-GL (1:15) (other)
# chain: GRRRSVQWCAVSQPEATKCFQWQRNMRKVRGPPVSCIKRDSPIQCIQAIAENRADAVTLDGGFIYEAGLAPYKLRPVAAEVYGTERQPRTHYYAVAVVKKGGSFQLNELQGLKSCHTGLRRTAGWNVPIGTLRPFLNWTGPPEPIEAAVARFFSASCVPGADKGQFPNLCRLCAGTGENKCAFSSQEPYFSYSGAFKCLRDGAGDVAFIRESTVFEDLSDEAERDEYELLCPDNTRKPVDKFKDCHLARVPSHAVVARSVNGKEDAIWNLLRQAQEKFGKDKSPKFQLFGSPSGQKDLLFKDSAIGFSRVPPRIDSGLYLGSGYFTAIQNLRKSEEEVAARRARVVWCAVGEQELRKCNQWSGLSEGSVTCSSASTTEDCIALVLKGEADAMSLDGGYVYTAGKCGLVPVLAENYKSQQSSDPDPNCVDRPVEGYLAVAVVRRSDTSLTWNSVKGKKSCHTAVDRTAGWNIPMGLLFNQTGSCKFDEYFSQSCAPGSDPRSNLCALCIGDEQGENKCVPNSNERYYGYTGAFRCLAENAGDVAFVKDVTVLQNTDGNNNEAWAKDLKLADFALLCLDGKRKPVTEARSCHLAMAPNHAVVSRMDKVERLKQVLLHQQAKFGRNGSDCPDKFCLFQSETKNLLFNDNTECLARLHGKTTYEKYLGPQYVAGITNLKKCSTSPLLEACEFLRK
# modifications: glycyrrhizin (oxidised with sodium periodate) coupled to amines of Lf by Schiff-base reaction and reduction with NaBH3CN; ratio Lf:GL 1:15 as printed; modified residues not identified
# B2: lactoferrin-glycyrrhizin conjugate Lf-GL (1:4) (other)
# chain: B1 chain
# modifications: glycyrrhizin (oxidised with sodium periodate) coupled to amines of Lf by Schiff-base reaction and reduction with NaBH3CN; ratio Lf:GL 1:4 as printed; modified residues not identified
# B3: lactoferrin-glycyrrhizin conjugate Lf-GL (1:10) (other)
# chain: B1 chain
# modifications: glycyrrhizin (oxidised with sodium periodate) coupled to amines of Lf by Schiff-base reaction and reduction with NaBH3CN; binding ratio Lf:GL 1:10 (1:9.6 by MALDI-TOF, 86,727.3 Da); modified residues not identified
# B4: lactoferrin human (Lf) (natural protein)
# chain: B1 chain
# Molecular target: T1, human recombinant HMGB1 protein (high-mobility group box-1) (human, UniProt P09429 1-215)
# T1 chain: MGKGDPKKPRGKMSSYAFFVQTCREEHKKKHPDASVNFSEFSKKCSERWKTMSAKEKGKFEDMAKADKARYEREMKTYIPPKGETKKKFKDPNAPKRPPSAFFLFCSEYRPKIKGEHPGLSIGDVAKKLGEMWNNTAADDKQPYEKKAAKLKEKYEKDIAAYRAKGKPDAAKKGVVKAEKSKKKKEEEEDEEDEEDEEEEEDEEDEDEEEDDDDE
# Test: SPR
row,Binder,koff
1,B1,0.000965 s⁻¹
2,B2,0.00158 s⁻¹
3,B3,0.000311 s⁻¹
4,B4,0.0134 s⁻¹
